# Target: mutagenized ULBP6 phage library (pool of ULBP6 mutants displayed on M13 phage)
# Assay: plate panning; antibody coated at 5 ug/mL, eluted phage titered against PBS-coated background wells
binder,measurement,value
"humanized 7B3 (h7B3), Fc version not stated (antibody, V domains shown) VH: EVQLVESGGGLVQPGGSLRLSCAASGFTFSTYGFHWVRQAPGKGLEWVAYISSNSGTIDYADTVKGRFTISRDNAKNSLYLQMNSLRAEDTAVYYCARQGYGFDNWGQGTTVTVSS VL: DIQLTQSPSSLSASVGDRVTITCSASSRVSYMNWYQQKPGKSPKIWVYGISNLASGVPSRFSGSGSGTDFTFTISSLQPEDIATYYCQQRSSHPLTFGGGTKVEIK",Phage enrichment,75 fold
"humanized 6E1 (h6E1), Fc version not stated (antibody, V domains shown) VH: EVQLVQSGAEVKKPGASVKVSCKASGYTFTNYWMHWMRQAPGQGLEWLGRIHPSDSDTNYNQKFKGRATLTVDKSISTAYMELSRLRSDDTAVYYCAIEGTGKGYFDVWGRGTLVTVSS VL: DIQMTQSPSSLSASVGDRVTITCKASQDIYSYLSWFQQKPGKSPKTLIYRANRLVDGVPSRFSGSGSGQDFTLTISSLQPEDFATYYCLHYDEFPLTFGGGTKVEIK",Phage enrichment,220 fold
"humanized 8E11 (h8E11), Fc version not stated (antibody, V domains shown) VH: EVQLVESGGGLVQPGGSLRLSCAASGFTFRTYGMHWVRQAPGKGLEWVAYISSGSGTIDYADTVKGRFTISRDNAKNSLYLQMNSLRAEDTAVYYCTRQTGAMDYWGQGTLVTVSS VL: EIVLTQSPATLSLSPGERATLSCSASSSVSYMNWYQQKPGQSPRLWIYGISNLASGVPARFSGSGSGTDFTLTISSLEPEDFAVYYCQQRSSHPLTFGGGTKVEIK",Phage enrichment,145 fold

# Reference: patent US20250084172A1
